Literature values, collected in paper PMC7539009.

Target: VPS29 (Homo sapiens) (UniProt Q9UBQ0)
Experiment: ITC

In the case of TBC1D5 132-158 (from UniProt Q92609), the Kd is listed as 20 µM.
